Sequences and labels used below:
B1: α-CD28 + β-41BB (Linker GGS) (TCR)
TCR alpha: KQEVTQIPAALSVPEGENLVLNCSFTDSAIYNLQWFRQDPGKGLTSLLLIQSSQREQTSGRLNASLDKSSGRSTLYIAASQPGDSATYLCAVRPLYGGSYIPTFGRGTSLIVHPYIQNPDPAVYQLRDSKSSDKSVCLFTDFDSQTNVSQSKDSDVYITDKCVLDMRSMDFKSNSAVAWSNKSDFACANAFNNSIIPEDTFFPSPESSCDVKLVEKSFETDTNLNFQNLSVIGFRILLLKVAGFNLLMTLRLWSSGGSRSKRSRLLHSDYMNMTPRRPGPTRKHYQPYAPPRDFAAYRS
TCR beta: NAGVTQTPKFQVLKTGQSMTLQCAQDMNHEYMSWYRQDPGMGLRLIHYSVGAGITDQGEVPNGYNVSRSTTEDFPLRLLSAAPSQTSVYFCASSYVGNTGELFFGEGSRLTVLEDLKNVFPPEVAVFEPSEAEISHTQKATLVCLATGFYPDHVELSWWVNGKEVHSGVCTDPQPLKEQPALNDSRYCLSSRLRVSATFWQNPRNHFRCQVQFYGLSENDEWTQDRAKPVTQIVSAEAWGRADCGFTSESYQQGVLSA
B2: α-CD28 + β (Linker GGS) (TCR)
TCR alpha: B1 TCR alpha
TCR beta: B1 TCR beta
B3: α-CD28 + β-CD28 (Linker GGS) (TCR)
TCR alpha: B1 TCR alpha
TCR beta: NAGVTQTPKFQVLKTGQSMTLQCAQDMNHEYMSWYRQDPGMGLRLIHYSVGAGITDQGEVPNGYNVSRSTTEDFPLRLLSAAPSQTSVYFCASSYVGNTGELFFGEGSRLTVLEDLKNVFPPEVAVFEPSEAEISHTQKATLVCLATGFYPDHVELSWWVNGKEVHSGVCTDPQPLKEQPALNDSRYCLSSRLRVSATFWQNPRNHFRCQVQFYGLSENDEWTQDRAKPVTQIVSAEAWGRADCGFTSESYQQGVLSATILYEILLGKATLYAVLVSALVLMAMVKRKDSRGGGSRSKRSRLLHSDYMNMTPRRPGPTRKHYQPYAPPRDFAAYRS

This assay deals with Alexa Fluor 647-labeled NY-ESO-1-MHC tetramer. Briefly: flow cytometry of transfected Jurkat NFAT-luciferase cells stained with Alexa Fluor 647-labeled NY-ESO-1-MHC tetramer; x axis Alexa 647-A; Empty Vector gate 0.46.
Regarding B1, the NYESO+ stood at 52.3%.
The result for B2 reads 64.5%.
As for B3, the figure is 53.6%.
